For assay [1], the target named is T1, rHuman CD44/Fc Chimera, CF (R&D Systems Cat#3660-CD) (human, UniProt P16070 21-220).
T1 construct: Bought Fc chimera; Fc part of the bought chimera not given
Nature of the assay: MSD ECL titration, Fab 595.8 nM, blank 285.

Assay [2] addresses T2, rHuman Erythropoietin R/Fc Chimera, CF (R&D Systems Cat#963-ER) (human, UniProt P19235 25-250).
T2 construct: Bought Fc chimera; also called EPO R/Fc; EPOR; Fc part of the bought chimera not given
T2 sequence: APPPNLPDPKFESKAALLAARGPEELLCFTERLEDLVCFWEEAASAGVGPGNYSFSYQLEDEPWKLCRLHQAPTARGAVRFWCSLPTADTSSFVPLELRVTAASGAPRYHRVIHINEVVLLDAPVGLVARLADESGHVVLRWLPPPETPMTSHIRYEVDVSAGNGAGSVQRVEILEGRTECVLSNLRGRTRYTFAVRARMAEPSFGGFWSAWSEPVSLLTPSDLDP
The assay is described as follows: MSD ECL titration, Fab 595.8 nM, blank 285.

For assay [3], the target named is T3, rHuman ErbB2/Fc Chimera, CF (R&D Systems Cat#1129-ER) (human, UniProt P04626 23-652).
T3 construct: Bought Fc chimera; also called HER2/neu; Fc part of the bought chimera not given
The assay is described as follows: MSD ECL titration, Fab 595.8 nM, blank 285.

Assay [4] deals with T4, rHuman HGF R/c-MET/Fc Chimera, CF (R&D Systems Cat#358-MT/CF) (human, UniProt P08581 25-932).
T4 construct: Bought Fc chimera; also called HGF R/Fc; not shown: Fc of the bought chimera
The assay is described as follows: ECL (MSD multi-spot), antigen on plate, Fab 50 nM.

The target in assay [5] is T5, rHuman CD44/Fc Chimera, CF (R&D Systems Cat#3660-CD) (human, UniProt P16070 21-220).
T5 construct: Bought Fc chimera; not shown: Fc of the bought chimera
Nature of the assay: ECL (MSD multi-spot), antigen on plate, Fab 50 nM.

For assay [6], the target named is T6, rHuman CD44/Fc Chimera, CF (R&D Systems Cat#3660-CD) (human, UniProt P16070 21-220).
T6 construct: Bought Fc chimera; Fc part of the bought chimera not given
The assay is described as follows: ECL (MSD Multi-Spot) binding, antigen spotted on plate; Fab 50 nM.

Assay [7] addresses T7, rHuman IGF-1 sR, CF (R&D Systems Cat#391-GR) (human, UniProt P08069 31-932).
T7 construct: Bought soluble receptor; also called insulin-like growth factor-1 soluble receptor; IGF-R1
Described as above.

Assay [8] concerns the target T8, rHuman P-Cadherin/Fc Chimera, CF (R&D Systems Cat#861-PC) (human, UniProt P22223 108-654).
T8 construct: Bought Fc chimera; Fc part of the bought chimera not given
The assay is described as above.

Assay [9] has as its target T9, rHuman Erythropoietin R/Fc Chimera, CF (R&D Systems Cat#963-ER) (human, UniProt P19235 25-250).
T9 construct: Bought Fc chimera; also called EPO R/Fc; erythropoietin receptor; Fc part of the bought chimera not given
T9 sequence: T2 sequence
The description is as above.

Assay [10] addresses T10, Recombinant Human DLL4 (R&D Systems Cat#1506-D4/CF) (human, UniProt Q9NR61 27-524).
T10 construct: Bought recombinant protein; also called delta-like protein 4
The description is as above.

Assay [11] addresses T11, rHuman ErbB2/Fc Chimera, CF (R&D Systems Cat#1129-ER) (human, UniProt P04626 23-652).
T11 construct: Bought Fc chimera; also called human epidermal growth factor 2 receptor; HER2/neu; Fc part of the bought chimera not given
The assay is described as above.

Assay [12] has as its target T12, rHuman EGF R/Fc Chimera, CF (R&D Systems Cat#344-ER) (human, UniProt P00533 25-645).
T12 construct: Bought Fc chimera; also called epidermal growth factor receptor; Fc part of the bought chimera not given
The assay is described as above.

The target in assay [13] is T13, rHuman HGF R/c-MET/Fc Chimera, CF (R&D Systems Cat#358-MT/CF) (human, UniProt P08581 25-932).
T13 construct: Bought Fc chimera; also called HGF R/Fc; hepatocyte growth factor receptor; Fc part of the bought chimera not given
Described as above.

Assay [14] addresses T14, rHuman Notch-1/Fc Chimera, CF (R&D Systems Cat#3647-TK) (human, UniProt P46531 19-526).
T14 construct: Bought Fc chimera; Fc part of the bought chimera not given
The description is as above.

Assay [15] concerns the target T15, rHuman Erythropoietin R/Fc Chimera, CF (R&D Systems Cat#963-ER) (human, UniProt P19235 25-250).
T15 construct: Bought Fc chimera; also called EPO R/Fc; Epo R; Fc part of the bought chimera not given
T15 sequence: T2 sequence
The assay is described as follows: ECL (MSD Multi-Spot) binding assay, antigen spotted on plate; Fab 30 nM; blank spot 213.

The target of assay [16] is T16, Recombinant Human DLL4 (R&D Systems Cat#1506-D4/CF) (human, UniProt Q9NR61 27-524).
T16 construct: Bought recombinant protein; also called delta-like protein 4; rHuman DLL4
The description is as above.

Assay [17] addresses T17, rHuman Notch-1/Fc Chimera, CF (R&D Systems Cat#3647-TK) (human, UniProt P46531 19-526).
T17 construct: Bought Fc chimera; Fc part of the bought chimera not given
Described as above.

Assay [18] deals with T18, rHuman CD44/Fc Chimera, CF (R&D Systems Cat#3660-CD) (human, UniProt P16070 21-220).
T18 construct: Bought Fc chimera; Fc part of the bought chimera not given
The description is as above.

Assay [19] deals with T19, rHuman P-Cadherin/Fc Chimera, CF (R&D Systems Cat#861-PC) (human, UniProt P22223 108-654).
T19 construct: Bought Fc chimera; also called CDH3; Fc part of the bought chimera not given
The description is as above.

We go through four molecules from patent publication US20120058906A1 (published 2012).

Numbering of substitutions follows the chain as printed.
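Also: blank spot per well as comparator with Hit at signal to blank ratio of 4 or more.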

B1: Fab VH1-46_IGHD6-6*01_IGHJ1*01 & L6_IGKJ1*01 (Fab, V domains shown)
VH: QVQLVQSGAEVKKPGASVKVSCKASGYTFTSYYMHWVRQAPGQGLEWMGIINPSGGSTSYAQKFQGRVTMTRDTSTSTVYMELSSLRSEDTAVYYCAREEYSSSSAEYFQHWGQGTLVTVSS
VL: not shown
notes: Expressed in E. coli as Fab: heavy chain with CH1 plus Flag and His tags from Plasmid A, kappa light chain constant region from Plasmid C; also called Fab No. 1
As for B1, the ECL signal in assay [1] was 372; in assay [2] it was 378; in assay [3], 321.

B2: Fab VH1-46_IGHD6-6*01_IGHJ1*01_S102A_S103P_S104F & L6_IGKJ1*01_S30N (Fab, V domains shown)
VH: B1 VH with S102A, S103P, S104F
VL: EIVLTQSPATLSLSPGERATLSCRASQSVNSYLAWYQQKPGQAPRLLIYDASNRATGIPARFSGSGSGTDFTLTISSLEPEDFAVYYCQQRSNWPPWTFGQGTKVEIKR
notes: Fab
Turning to B2, the ECL signal amounted to 135 ECL signal in assay [4] and 271 ECL signal in [5].

B3: Fab VH1-46_IGHD6-6*01_IGHJ1*01_S102A_S103P_S104F_H111Y & L6_IGKJ1*01 (Fab, V domains shown)
VH: B1 VH with S102A, S103P, S104F, H111Y
VL: not shown
notes: Fab made in E. coli; The heavy chain also carries the CH1 with Flag and His tags of Plasmid A, and the light chain the kappa constant region of Plasmid C
Regarding B3, the ECL signal in assay [6] came out at 433; in assay [7], 460; in [8] it was 626; in [9] it was 631; in assay [10] it was 207000; in [11], 589. Besides, the results for the ECL signal in assay [12], in [13] and in assay [14] were 523, 325 and 475, respectively.

B4: Fab VH6-1_IGHD3-3*01_IGHJ4*01 & V4-3_IGLJ4*01 (Fab, V domains shown)
VH: QVQLQQSGPGLVKPSQTLSLTCAISGDSVSSNSAAWNWIRQSPSRGLEWLGRTYYRSKWYNDYAVSVKSRITINPDTSKNQFSLQLNSVTPEDTAVYYCAREYYDFWSGYYTDYFDYWGQGTLVTVSS
VL: QPVLTQPTSLSASPGASARLTCTLRSGINLGSYRIFWYQQKPESPPRYLLSYYSDSSKHQGSGVPSRFSGSKDASSNAGILVISGLQSEDEADYYCMIWHSSASFVFGGGTQLIIL
notes: Tested as a Fab made in E. coli; also called IGHV6-1*01
Turning to B4, the ECL signal stood at 325 in assay [15]; 736 in [16]; 425 in assay [17]; 484 in assay [18]; 440 in assay [19].
